In PMC3647168 (Scientific Reports, 2013):

Target: T1, His-DDA3 (UniProt Q6PGN9 1-363)
T1 sequence (looked up): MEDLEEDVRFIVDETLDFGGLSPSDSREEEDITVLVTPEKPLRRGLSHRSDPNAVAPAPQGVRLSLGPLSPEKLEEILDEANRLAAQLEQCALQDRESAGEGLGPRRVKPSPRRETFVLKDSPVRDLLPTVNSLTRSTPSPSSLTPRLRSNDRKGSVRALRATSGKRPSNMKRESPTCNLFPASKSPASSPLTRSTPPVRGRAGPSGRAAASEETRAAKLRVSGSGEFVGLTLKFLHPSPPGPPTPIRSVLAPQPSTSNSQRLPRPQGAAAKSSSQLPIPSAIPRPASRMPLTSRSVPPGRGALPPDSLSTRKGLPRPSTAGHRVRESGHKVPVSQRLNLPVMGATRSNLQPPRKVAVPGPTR
Assay: pull-down

binding result: binds
B1: GST-EB1 (natural protein, UniProt Q15691 1-268, looked up)
chain: MAVNVYSTSVTSDNLSRHDMLAWINESLQLNLTKIEQLCSGAAYCQFMDMLFPGSIALKKVKFQAKLEHEYIQNFKILQAGFKRMGVDKIIPVDKLVKGKFQDNFEFVQWFKKFFDANYDGKDYDPVAARQGQETAVAPSLVAPALNKPKKPLTSSSAAPQRPISTQRTAAAPKAGPGVVRKNPGVGNGDDEAAELMQQVNVLKLTVEDLEKERDFYFGKLRNIELICQENEGENDPVLQRIVDILYATDEGFVIPDEGGPQEEQEEY
